Measurements published in PMC13544220, “Glycemic and bodyweight effects of GIPR coding variation reflect differences in surface expression and intrinsic functional impairment” (Science Advances, 2026).
Changes are numbered by the printed parent chain. Names may count otherwise.

B1: E354Q (protein)
chain: RAETGSKGQTAGELYQRWERYRRECQETLAAAEPPSGLACNGSFDMYVCWDYAAPNATARASCPWYLPWHHHVAAGFVLRQCGSDGQWGLWRDHTQCENPEKNEAFLDQRLILERLQVMYTVGYSLSLATLLLALLILSLFRRLHCTRNYIHINLFTSFMLRAAAILSRDRLLPRPGPYLGDQALALWNQALAACRTAQIVTQYCVGANYTWLLVEGVYLHSLLVLVGGSEEGHFRYYLLLGWGAPALFVIPWVIVRYLYENTQCWERNEVKAIWWIIRTPILMTILINFLIFIRILGILLSKLRTRQMRCRDYRLRLARSTLTLVPLLGVHQVVFAPVTEEQARGALRFAKLGFEIFLSSFQGFLVSVLYCFINKEVQSEIRRGWHHCRLRRSLGEEQRQLPERAFRALPSGSGPGEVPTSRGLSSGTLPGPGNEASRELESYC
B2: R190Q (protein)
chain: B1 chain with R169Q, Q333E
modifications: left off: SNAP-tag, end not stated, kept
B3: R101H (protein)
chain: B1 chain with R80H, Q333E
B4: E288G (protein)
chain: B1 chain with E267G, Q333E

Test system: wild-type and variant SNAP-GIPR
Assay: Surface SNAP-GIPR expression (SNAP-tag labelling) in INS-1 cells
Assay type: cell-based, human
Conditions: Fig 4G; Mean
In short: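 Read-out: whole-cell fluorescence of surface-only SNAP label (Alexa Fluor 647, 500 nM, 10 min, RT), wide-field 20X, several FOVs per well. Flat-field corrected, phase-contrast masked, nontransfected-well signal subtracted; normalized to experiment mean or wild-type.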

Molecule	Surface expression
B1	0.7154
B2	0.5789
B3	0.19
B4	0.2232

Test system: wild-type and variant SNAP-GIPR
Assay: Single-concentration GIP cAMP response by HTRF in AD293 cells;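 also: ratio to experiment-wide average response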
Assay type: cell-based, human
Conditions: Fig S3F; AD293, 100 pM, HTRF; mean
Protocol: All variants were tested in parallel on each occasion to control for transfection efficiency differences between experiments.

Molecule	AD293 100 pM HTRF
B1	4.703
B2	0.272
B3	-0.001017
B4	0.007216

Same assay, conditions: Fig S3F; AD293, 100 nM, HTRF; mean

Molecule	AD293 100 nM HTRF
B1	1.4229
B2	0.2205
B3	0.2474
B4	0.3648

Test system: wild-type and variant SNAP-GIPR
Assay: cADDis cAMP imaging in AD293 cells, ensemble, expression-matched and per decile;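 also: Ensemble cells as % of IBMX/FSK response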
Assay type: cell-based, human
Conditions: Fig S3F; AD293, 100 pM, cADDis; mean
In short: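 AD293 cells were transfected with SNAP-GIPR constructs and cotransduced with the cADDis Green Up cAMP sensor, then labeled after 24 h with 500 nM SNAP-Surface Alexa Fluor 647. Per-cell cADDis intensity was tracked at 37°C in KRBH with 6 mM glucose and 0.1% BSA.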

Molecule	AD293 100 pM cADDis
B1	41.2353
B2	-0.9408
B3	6.465
B4	0.802

Same assay, conditions: Fig S3F; AD293, 100 nM, cADDis; mean

Molecule	AD293 100 nM cADDis
B1	37.94
B2	9.541
B3	17.19
B4	24.23

Test system: wild-type and variant SNAP-GIPR
Assay: Constitutive and agonist-mediated internalization, reversible SNAP-tag labelling, AD293 cells
Assay type: cell-based, human
Parameters: key to Internalisation, Vehicle / Internalisation, +GIP / Internalisation, GIP-only: % internalization: residual fluorescence after Mesna vs pre-Mesna; Surface expression: unit not given here
Conditions: Fig 4E, GIP 100 nM, Mean
In short: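 Percentage internalization is read as the fraction of specific SNAP fluorescence that survives Mesna stripping, compared with the image taken before Mesna. Wells are imaged in TNE buffer at pH 8.6 and again after 10 min.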

Molecule	+GIP internalisation (100 nM)	GIP-specific internalisation (100 nM)
B1	0.4635	0.1217
B2	0.1813	-0.007972
B3	0.1328	0.01912
B4	0.06598	0.002144

Same assay, conditions: Fig 4E, Mean

Molecule	Constitutive internalisation (100 nM)	Surface expression
B1	0.3419	0.6766
B2	0.1892	0.3493
B3	0.1137	0.2712
B4	0.06383	0.1099

Same assay, conditions: Fig S4C; AD293; Mean

Molecule	Internalisation, +GIP	Internalisation, GIP-only	Internalisation, Vehicle
B1	68.6221	17.9918	50.6302
B2	51.2548	-3.738	54.9926
B3	49.9522	4.89	45.062
B4	59.0204	2.581	56.4393

Test system: wild-type and variant SNAP-GIPR in Gipr-/- mouse islets
Assay: Surface SNAP-GIPR expression in pancreatic islets
Assay type: cell-based, human
Conditions: Fig 6B, replicate 1
Protocol: Islets were purified from Gipr^−/− mice as described in the “Islet isolation and culture” section. Islets were transduced with adenoviral wild-type or variant SNAP-tagged GIPR constructs (VectorBuilder) per the manufacturer’s instructions. All variants were tested in parallel on each occasion to control for transduction efficiency. Twenty-four hours posttransduction, whole, intact islets were labeled with SNAP-Surface Alexa Fluor 647 for 15 min at 37°C. Following labeling, the islets were placed in a drop of PBS in the center of a glass-bottom MatTek dish and imaged on a Zeiss LSM 780 inverted confocal microscope fitted with a 63X/1.4 NA oil immersion objective. Receptor surface levels were quantified in Fiji using a macro using full width at half maximum (FWHM) designed by the Facility for Imaging and Light Microscopy (FILM) at Imperial College London and expressed relative to wild-type GIPR. In additional experiments, islets transduced as above and labeled with SNAP-Surface-647 were fixed in 4% paraformaldehyde, permeabilized in 0.5% (v/v) Triton X-100 in PBS (15 min), washed once with PBS and incubated in blocking buffer (PBS and 1% BSA) for 1 hour, and incubated overnight at 4°C in primary antibodies against insulin (1:50; Dako IR002, Agilent Technologies) and glucagon (1:500; G2654, Sigma-Aldrich) in blocking buffer.

Molecule	Surface SNAP-GIPR expression in pancreatic islets
B1	1.913
B2	0.6777
B3	0.3446
B4	0.1066

Same assay, conditions: Fig 6B, replicate 2

Molecule	Surface SNAP-GIPR expression in pancreatic islets
B1	1.476
B2	0.189
B3	0.4042
B4	0.6008

Same assay, conditions: Fig 6B, replicate 3

Molecule	Surface SNAP-GIPR expression in pancreatic islets
B1	1.8301
B2	0.9549
B3	0.02787
B4	0.01404

Same assay, conditions: Fig 6B, replicate 4

Molecule	Surface SNAP-GIPR expression in pancreatic islets
B1	2.1125
B2	-0.2055
B3	0.08995
B4	-0.2745

Same assay, conditions: Fig 6B, replicate 5

Molecule	Surface SNAP-GIPR expression in pancreatic islets
B1	2.267
B2	-0.1767
B3	-0.05398
B4	-0.1674
